Laboratory results as given in FireProtDB (doi:10.1111/j.1432-1033.1992.tb16932.x).

B1: Ribonuclease HI, P0A7Y4 (parent)
chain: MLKQVEIFTDGSCLGNPGPGGYGAILRYRGREKTFSAGYTRTTNNRMELMAAIVALEALKEHCEVILSTDSQYVRQGITQWIHNWKKRGWKTADKKPVKNVDLWQRLDAALGQHQIKWEWVKGHAGHPENERCDELARAAAMNPTLEDTGYQVEV

Variants of: B1
Conditions: Escherichia coli (strain K12), CD, reversible: yes, structure 2RN2, whole UniProt chain shown
[1] = pH 3, 49.8 °C, Thermal, glycine-HCl 10 mM
[2] = pH 3, Thermal, glycine-HCl 10 mM
[3] = pH 5.5, 25 °C, Urea, Sodium acetate 10 mM, NaCl 0.1 M

Variant	ddG of mutation (higher = less stable) [1] [kcal/mol]	Tm [2] [°C]	change of melting temperature, mutant - wild type (higher = more stable) [2] [°C]	unfolding enthalpy (van 't Hoff) [2] [kcal/mol]	ddG of mutation (higher = less stable) [3] [kcal/mol]	denaturant m value [3] [kcal/mol/M]	denaturant midpoint (higher = more stable) [3] [M]	unfolding free energy [3] [kcal/mol]
S68T	0.2	49.1	-0.7	106	-0.1	1.95	5	9.91
S68V	-0.6	51.7	1.9	98.8	-1.29	2.13	5.1	11.1
S68A	0.5	48.3	-1.5	89	-0.19	2.06	4.8	10
S68G	2.4	41.8	-8	84.7	2.2	2	4	7.61
S68L	0.5	48.2	-1.6	84	–	–	–	–
